# Measurements: US20170336415A1
# Assays:
# fucosylated haptoglobin [1] = target: fucosylated haptoglobin (UniProt P00738); assay: sandwich ELISA as in Example 4, captured fHP, biotin-labeled AML, no urea
# fucosylated haptoglobin [2] = target: fucosylated haptoglobin (UniProt P00738); assay: sandwich ELISA, 5 M urea against no urea
# fucosylated haptoglobin [3] = target: fucosylated haptoglobin (UniProt P00738); assay: sandwich ELISA as in Example 4, captured fHP, biotin-labeled AML, 5 M urea
# fucosylated haptoglobin [4] = target: fucosylated haptoglobin (UniProt P00738); assay: sandwich ELISA, 5 M urea minus no urea
# fucosylated haptoglobin [5] = target: fucosylated haptoglobin (UniProt P00738); assay: sandwich ELISA, fHP 200 ng/mL captured by anti-haptoglobin antibody, biotin-labeled lectin 1 µg/mL, 5 M urea
# fucosylated haptoglobin [6] = target: fucosylated haptoglobin (UniProt P00738); assay: sandwich ELISA, fHP 200 ng/mL captured by anti-haptoglobin antibody, biotin-labeled lectin 1 µg/mL, no urea
# fucosylated haptoglobin [7] = target: fucosylated haptoglobin (UniProt P00738); assay: sandwich ELISA as in Example 4, captured fHP, biotin-labeled NSL, no urea
# fucosylated haptoglobin [8] = target: fucosylated haptoglobin (UniProt P00738); assay: sandwich ELISA as in Example 4, captured fHP, biotin-labeled NSL, 5 M urea
# fucosylated haptoglobin [9] = target: fucosylated haptoglobin (UniProt P00738); assay: magnetic bead assay: fHP 0.45 µg/mL mixed with recombinant lectin 5 µg/mL, captured on anti-haptoglobin antibody beads, HRP anti-FLAG detection, no urea
# fucosylated haptoglobin [10] = target: fucosylated haptoglobin (UniProt P00738); assay: magnetic bead assay: fHP 0.45 µg/mL mixed with recombinant lectin 5 µg/mL, captured on anti-haptoglobin antibody beads, HRP anti-FLAG detection, 5 M urea
# fucosylated haptoglobin [11] = target: fucosylated haptoglobin (UniProt P00738); assay: magnetic bead assay, 5 M urea against no urea
# fucosylated haptoglobin [12] = target: fucosylated haptoglobin (UniProt P00738); assay: magnetic bead assay, signal with fHP divided by signal without fHP, 5 M urea
# fucosylated haptoglobin [13] = target: fucosylated haptoglobin (UniProt P00738); assay: magnetic bead assay, signal with fHP divided by signal without fHP, no urea
# fucosylated haptoglobin [14] = target: fucosylated haptoglobin (UniProt P00738); assay: magnetic bead assay, 5 M urea minus no urea
# fucosylated haptoglobin [15] = target: fucosylated haptoglobin (UniProt P00738); assay: sandwich ELISA as in Example 4 (biotin-labeled PhoSL), captured fHP washed with detergent liquid without urea or thiourea
# fucosylated haptoglobin [16] = target: fucosylated haptoglobin (UniProt P00738); assay: direct adsorption ELISA, fHP immobilized, biotin-labeled PhoSL, 1.2 M thiourea
# fucosylated haptoglobin [17] = target: fucosylated haptoglobin (UniProt P00738); assay: sandwich ELISA as in Example 4, fHP 50 ng/mL, urea 0 to 9 M
# fucosylated haptoglobin [18] = target: fucosylated haptoglobin (UniProt P00738); assay: sandwich ELISA, wash with 1.2 M thiourea minus wash without
# fucosylated haptoglobin [19] = target: fucosylated haptoglobin (UniProt P00738); assay: direct adsorption ELISA, 1.2 M thiourea against no thiourea
# α-fetoprotein L3 [20] = target: α-fetoprotein L3 (UniProt P02771); assay: as above
# Sequence of α-fetoprotein L3 (P02771 19-609 limits assumed): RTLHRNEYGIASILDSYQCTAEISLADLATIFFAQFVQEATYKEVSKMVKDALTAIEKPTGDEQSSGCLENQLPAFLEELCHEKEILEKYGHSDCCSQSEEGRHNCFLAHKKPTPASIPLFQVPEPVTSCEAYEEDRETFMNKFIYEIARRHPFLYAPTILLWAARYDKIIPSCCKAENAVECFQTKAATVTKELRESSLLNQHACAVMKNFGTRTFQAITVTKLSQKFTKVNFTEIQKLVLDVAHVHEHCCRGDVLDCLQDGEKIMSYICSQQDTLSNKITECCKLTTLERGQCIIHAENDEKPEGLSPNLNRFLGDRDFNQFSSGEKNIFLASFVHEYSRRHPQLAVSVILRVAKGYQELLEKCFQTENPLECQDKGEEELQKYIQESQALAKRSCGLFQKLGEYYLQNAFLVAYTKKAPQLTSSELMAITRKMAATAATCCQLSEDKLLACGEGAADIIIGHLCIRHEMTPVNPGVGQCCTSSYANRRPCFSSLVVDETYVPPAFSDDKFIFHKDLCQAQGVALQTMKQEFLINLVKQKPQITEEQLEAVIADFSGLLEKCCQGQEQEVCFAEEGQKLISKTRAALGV
# fucosylated haptoglobin [21] = target: fucosylated haptoglobin (UniProt P00738); assay: sandwich ELISA as in Example 4 (biotin-labeled PhoSL), captured fHP washed with detergent liquid with 1.2 M thiourea, none in lectin solution
# fucosylated haptoglobin [22] = target: fucosylated haptoglobin (UniProt P00738); assay: sandwich ELISA as in Example 4 (biotin-labeled PhoSL), captured fHP washed with detergent liquid with 5 M urea, no urea in lectin solution
# fucosylated haptoglobin [23] = target: fucosylated haptoglobin (UniProt P00738); assay: sandwich ELISA, wash with 5 M urea minus wash without
# fucosylated haptoglobin [24] = target: fucosylated haptoglobin (UniProt P00738); assay: direct adsorption ELISA, fHP immobilized, biotin-labeled PhoSL 1 µg/mL, 5 M urea
# fucosylated haptoglobin [25] = target: fucosylated haptoglobin (UniProt P00738); assay: direct adsorption ELISA, fHP immobilized, biotin-labeled PhoSL, no thiourea
# fucosylated haptoglobin [26] = target: fucosylated haptoglobin (UniProt P00738); assay: sandwich ELISA, wash with 1.2 M thiourea against wash without
# fucosylated haptoglobin [27] = target: fucosylated haptoglobin (UniProt P00738); assay: direct adsorption ELISA, 5 M urea minus no urea
# α-fetoprotein L3 [28] = target: α-fetoprotein L3 (UniProt P02771); assay: direct adsorption ELISA, 5 M urea minus no urea
# fucosylated haptoglobin [29] = target: fucosylated haptoglobin (UniProt P00738); assay: direct adsorption ELISA, 5 M urea against no urea
# α-fetoprotein L3 [30] = target: α-fetoprotein L3 (UniProt P02771); assay: direct adsorption ELISA, 5 M urea against no urea
# fucosylated haptoglobin [31] = target: fucosylated haptoglobin (UniProt P00738); assay: sandwich ELISA, wash with 5 M urea against wash without
# α-fetoprotein L3 [32] = target: α-fetoprotein L3 (UniProt P02771); assay: direct adsorption ELISA, AFP-L3 immobilized, biotin-labeled PhoSL 1 µg/mL, 5 M urea
# α-fetoprotein L3 [33] = target: α-fetoprotein L3 (UniProt P02771); assay: direct adsorption ELISA, AFP-L3 immobilized, biotin-labeled PhoSL 1 µg/mL, no urea
# fucosylated haptoglobin [34] = target: fucosylated haptoglobin (UniProt P00738); assay: direct adsorption ELISA, 1.2 M thiourea minus no thiourea
# α-fetoprotein L3 [35] = target: α-fetoprotein L3 (UniProt P02771); assay: as above
# α-fetoprotein L3 [36] = target: α-fetoprotein L3 (UniProt P02771); assay: direct adsorption ELISA, AFP-L3 immobilized, biotin-labeled PhoSL, 1.2 M thiourea
# α-fetoprotein L3 [37] = target: α-fetoprotein L3 (UniProt P02771); assay: direct adsorption ELISA, AFP-L3 immobilized, biotin-labeled PhoSL, no thiourea
# fucosylated haptoglobin [38] = target: fucosylated haptoglobin (UniProt P00738); assay: sandwich ELISA as in Example 4, thiourea 0 to 1.5 M
# fucosylated haptoglobin [39] = target: fucosylated haptoglobin (UniProt P00738); assay: direct adsorption ELISA, fHP immobilized, biotin-labeled PhoSL 1 µg/mL, no urea
# fucosylated haptoglobin [40] = target: fucosylated haptoglobin (UniProt P00738); assay: sandwich ELISA as in Example 4, captured fHP, biotin-labeled PTL, no urea
# fucosylated haptoglobin [41] = target: fucosylated haptoglobin (UniProt P00738); assay: sandwich ELISA as in Example 4, captured fHP, biotin-labeled PTL, 5 M urea
# Sequence of fucosylated haptoglobin (P00738 19-406 limits assumed): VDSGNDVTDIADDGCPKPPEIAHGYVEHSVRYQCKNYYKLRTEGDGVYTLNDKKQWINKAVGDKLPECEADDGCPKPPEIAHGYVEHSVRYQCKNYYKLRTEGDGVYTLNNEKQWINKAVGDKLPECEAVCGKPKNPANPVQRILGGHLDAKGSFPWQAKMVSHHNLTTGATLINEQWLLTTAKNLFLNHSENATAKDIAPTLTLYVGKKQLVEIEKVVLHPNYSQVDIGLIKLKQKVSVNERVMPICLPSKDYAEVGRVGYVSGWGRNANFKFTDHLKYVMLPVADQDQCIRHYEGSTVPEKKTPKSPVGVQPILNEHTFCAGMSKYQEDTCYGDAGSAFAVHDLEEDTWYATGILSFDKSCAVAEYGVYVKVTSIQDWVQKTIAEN
substance,measurement,setting,value
"Amanita muscaria lectin (AML), biotin-labeled",Reaction value (S - N)urea 0M (absorbance (450 nm - 630 nm)),fucosylated haptoglobin [1],0.027
same,Increased rate of signal,fucosylated haptoglobin [2],20.3 fold
same,Reaction value (S - N)urea 5M (absorbance (450 nm - 630 nm)),fucosylated haptoglobin [3],0.548
same,Increased amount of signal (absorbance (450 nm - 630 nm)),fucosylated haptoglobin [4],0.521
Biotin-labeled Aleuria aurantia lectin (from UniProt P18891 2-313),Reaction value (S - N)urea 5M (absorbance (450 nm - 630 nm)),fucosylated haptoglobin [5],0.774
same,Increased rate of signal,fucosylated haptoglobin [2],0.88 fold
same,Increased amount of signal (absorbance (450 nm - 630 nm)),fucosylated haptoglobin [4],-0.103
same,Reaction value (S - N)urea 0M (absorbance (450 nm - 630 nm)),fucosylated haptoglobin [6],0.877
"Naematoloma sublateritium lectin (NSL), biotin-labeled",Increased rate of signal,fucosylated haptoglobin [2],3.18 fold
same,Reaction value (S - N)urea 0M (absorbance (450 nm - 630 nm)),fucosylated haptoglobin [7],0.423
same,Increased amount of signal (absorbance (450 nm - 630 nm)),fucosylated haptoglobin [4],0.922
same,Reaction value (S - N)urea 5M (absorbance (450 nm - 630 nm)),fucosylated haptoglobin [8],1.34
"PhoSL peptide, biotin-labeled",Reaction value (S - N)urea 5M (absorbance (450 nm - 630 nm)),fucosylated haptoglobin [5],0.214
same,Increased rate of signal,fucosylated haptoglobin [2],1.32 fold
same,Increased amount of signal (absorbance (450 nm - 630 nm)),fucosylated haptoglobin [4],0.052
same,Reaction value (S - N)urea 0M (absorbance (450 nm - 630 nm)),fucosylated haptoglobin [6],0.162
PhoSL recombinant lectin,Reaction value (S - N)urea 0M (absorbance (450 nm - 630 nm)),fucosylated haptoglobin [9],0.455
same,Reaction value (S - N)urea 5M (absorbance (450 nm - 630 nm)),fucosylated haptoglobin [10],0.708
same,Increased rate of signal,fucosylated haptoglobin [11],1.56 fold
same,Reaction value (S/N)urea 5M,fucosylated haptoglobin [12],26.3
same,Reaction value (S/N)urea 0M,fucosylated haptoglobin [13],6.83
same,Increased amount of signal (absorbance (450 nm - 630 nm)),fucosylated haptoglobin [14],0.253
"Pholiota squarrosa lectin (PhoSL), biotin-labeled",Reaction value (S - N)0M (absorbance (450 nm - 630 nm)),fucosylated haptoglobin [15],0.545
same,Reaction value (S - N)urea 5M (absorbance (450 nm - 630 nm)),fucosylated haptoglobin [5],0.796
same,Reaction value (S - N)thiourea 1.2M (absorbance (450 nm - 630 nm)),fucosylated haptoglobin [16],1.04
same,increased rate of the signals against no urea,fucosylated haptoglobin [17],1.2 to 2.8 times
same,Increased rate of signal,fucosylated haptoglobin [2],3 fold
same,Increased amount of signal (absorbance (450 nm - 630 nm)),fucosylated haptoglobin [18],0.364
same,Increased rate of signal,fucosylated haptoglobin [19],2.89 fold
same,Increased rate of signal,α-fetoprotein L3 [20],39 fold
same,Reaction value (S - N)thiourea 1.2M (absorbance (450 nm - 630 nm)),fucosylated haptoglobin [21],0.909
same,Reaction value (S - N)urea 5M (absorbance (450 nm - 630 nm)),fucosylated haptoglobin [22],1
same,Increased amount of signal (absorbance (450 nm - 630 nm)),fucosylated haptoglobin [23],0.457
same,Reaction value (S - N)urea 5M (absorbance (450 nm - 630 nm)),fucosylated haptoglobin [24],0.724
same,Reaction value (S - N)thiourea 0M (absorbance (450 nm - 630 nm)),fucosylated haptoglobin [25],0.36
same,Increased rate of signal,fucosylated haptoglobin [26],1.67 fold
same,Increased amount of signal (absorbance (450 nm - 630 nm)),fucosylated haptoglobin [27],0.471
same,Increased amount of signal (absorbance (450 nm - 630 nm)),α-fetoprotein L3 [28],0.124
same,Increased rate of signal,fucosylated haptoglobin [29],2.86 fold
same,Increased rate of signal,α-fetoprotein L3 [30],16.5 fold
same,Increased rate of signal,fucosylated haptoglobin [31],1.84 fold
same,Reaction value (S - N)urea 5M (absorbance (450 nm - 630 nm)),α-fetoprotein L3 [32],0.132
same,Reaction value (S - N)urea 0M (absorbance (450 nm - 630 nm)),α-fetoprotein L3 [33],0.008
same,Increased amount of signal (absorbance (450 nm - 630 nm)),fucosylated haptoglobin [4],0.531
same,Increased amount of signal (absorbance (450 nm - 630 nm)),fucosylated haptoglobin [34],0.681
same,Increased amount of signal (absorbance (450 nm - 630 nm)),α-fetoprotein L3 [35],0.114
same,Reaction value (S - N)thiourea 1.2M (absorbance (450 nm - 630 nm)),α-fetoprotein L3 [36],0.117
same,Reaction value (S - N)urea 0M (absorbance (450 nm - 630 nm)),fucosylated haptoglobin [6],0.265
same,Reaction value (S - N)thiourea 0M (absorbance (450 nm - 630 nm)),α-fetoprotein L3 [37],0.003
same,increased rate of the signals against no thiourea,fucosylated haptoglobin [38],1.2 to 4.1 times
same,Reaction value (S - N)urea 0M (absorbance (450 nm - 630 nm)),fucosylated haptoglobin [39],0.253
"Pholiota terrestris lectin (PTL), biotin-labeled",Increased rate of signal,fucosylated haptoglobin [2],2.37 fold
same,Reaction value (S - N)urea 0M (absorbance (450 nm - 630 nm)),fucosylated haptoglobin [40],0.542
same,Reaction value (S - N)urea 5M (absorbance (450 nm - 630 nm)),fucosylated haptoglobin [41],1.28
same,Increased amount of signal (absorbance (450 nm - 630 nm)),fucosylated haptoglobin [4],0.743
"Stropharia rugosoannulata lectin (SRL), biotin-labeled",Reaction value (S - N)urea 5M (absorbance (450 nm - 630 nm)),fucosylated haptoglobin [5],0.863
same,Increased rate of signal,fucosylated haptoglobin [2],2.01 fold
same,Increased amount of signal (absorbance (450 nm - 630 nm)),fucosylated haptoglobin [4],0.433
same,Reaction value (S - N)urea 0M (absorbance (450 nm - 630 nm)),fucosylated haptoglobin [6],0.43
